Data from patent US20150246946A1, “PEPTIDES AND METHODS FOR TREATING CANCER” (AGENCY FOR SCIENCE, TECHNOLOGY AND RESEARCH, priority 2012, published 2015).
Where two headings read alike, the source gives them in different places. Where a SMILES comes first, the peptide text is derived from it. Bridges are numbered along the chain shown (N, C = ends). [ ]: non-standard residue; d: D form. Trp(6-Cl) = N[C@@H](Cc1c[nH]c2cc(Cl)ccc12)C(=O)O; dTrp(6-Cl) = N[C@H](Cc1c[nH]c2cc(Cl)ccc12)C(=O)O; R8 = C=CCCCCCC[C@@](C)(N)C(=O)O; S5 = C=CCCC[C@](C)(N)C(=O)O

Key:
[1] = system: p53 null thymocytes; experiment: cell viability in mouse thymocytes, p53 null; assay type: cell-based, mice; conditions: high doses, 24 hours, annexin V/PI
[2] = target: T1, Mdm2 (1-125) (Homo sapiens, UniProt Q00987); experiment: competitive fluorescence polarization/anisotropy, apparent Kd against Mdm2; assay type: binding
T1 construct: Mdm2 (1-125) and Mdm4 (1-125) were ligated into the GST fusion expression vector pGEX-6P-1; GST (N, cleaved yes); made in house; host or cells: E. coli BL21 DE3
T1 sequence (Q00987 1-125): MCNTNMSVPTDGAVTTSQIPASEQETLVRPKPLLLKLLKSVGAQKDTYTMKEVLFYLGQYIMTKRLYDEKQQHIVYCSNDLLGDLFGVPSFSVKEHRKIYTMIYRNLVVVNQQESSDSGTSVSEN
Experimental: (§1) The cells expressing the GST fusion constructs were grown in LB medium at 37° C. to an OD600 of ˜0.6 and induction was started with 1 mM IPTG and carried out overnight at room temperature. Cells were harvested by centrifugation and the cell pellets were re-suspended in 50 mM Tris pH 8.0, 10% sucrose and were then sonicated. The sonicated sample was centrifuged for 60 mins at 17,000 g at 4° C. […] The column was then further washed by 6 volumes of wash buffer. Mdm2 and Mdm4 were then purified from the column by cleavage with Precission (GE Lifesciences) protease. 10 units of precission protease, in one column volume of PBS with 1 mM DTT buffer, were injected onto the column. The cleavage reaction was allowed to proceed overnight at 4° C. The cleaved protein was then eluted of the column with wash buffer. Protein fractions were analyzed with SDS page gel and concentrated using a Centricon (3.5 kDa MWCO) concentrator, Millipore. Mdm2 and Mdm4 protein samples were then dialyzed into a buffer solution containing 20 mM Bis-Tris, pH 6.5, 0.05M NaCl with 1 mM DTT and loaded onto a monoS column pre-equilibrated in buffer A (20 mM Bis-Tris, pH 6.5, 1 mM DTT). The column was then washed in 6 column volumes of buffer A and bound protein was eluted with a linear gradient of 1M NaCL over 25 column volumes. Protein fractions were analyzed with SDS page gel and concentrated using a Centricon (3.5 kDa MWCO) concentrator from Millipore.
(§2) Apparent Kd values were determined for a variety of molecules via competitive fluorescence anisotropy experiments. […] The competing molecules were then titrated against complex of the FAM labelled peptide and protein. Apparent Kd values were determined by fitting the experimental data to the equations shown below:
(§3) [L]st and [L]t denote labelled ligand and total unlabelled ligand input concentrations, respectively. Kd2 is the dissociation constant of the interaction between the unlabelled ligand and the protein. In all competitive types of experiments, it is assumed that [P]t>[L]st, otherwise considerable amounts of free labelled ligand would always be present and would interfere with measurements. […] The FAM-labelled peptide were dissolved in DMSO at 1 mM and diluted into experimental buffer. Readings were carried out with a Envision Multilabel Reader (PerkinElmer). […] All titrations were carried out in triplicate. Curve-fitting was carried out using Prism 4.0 (GraphPad).

[3] = target: T2, Mdm4 (1-125) (Homo sapiens, UniProt O15151); experiment: competitive fluorescence polarization/anisotropy, apparent Kd against Mdm4; assay type: binding
T2 construct: Mdm4 (1-125) were ligated into the GST fusion expression vector pGEX-6P-1; GST (N, cleaved yes); made in house; host or cells: E. coli BL21 DE3
T2 sequence (O15151 1-125): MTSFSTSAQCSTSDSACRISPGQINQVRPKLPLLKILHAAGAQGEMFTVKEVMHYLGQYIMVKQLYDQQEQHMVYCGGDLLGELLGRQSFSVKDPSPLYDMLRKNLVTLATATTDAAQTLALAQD
Experimental: as §1, §2, §3

[4] = system: p53 responsive LacZ reporter gene in T22 cell line; experiment: T22 p53 β-galactosidase based reporter assay; assay type: cell-based, murine; conditions: 18 hours, DMEM with 10% FBS
Experimental: T22 cells, which were stably transfected with a p53 responsive […] reporter, were seeded into 96-well plate at a cell density of 8000 cells per well. […] Measurements were carried out using a Safire II multiplate reader (TECAN). Experiments were carried out independently twice.

[5] = target: T3, Mdm2 (1-125) (human, UniProt Q00987 1-125); experiment: apparent Kd, competitive fluorescence polarization; displacement of FAM-…-NH2 from Mdm2 (1-125)
T3 construct: range 1-125; also called Hdm2
T3 sequence (Q00987 1-125 limits assumed): as the sequence (Q00987 1-125) above

[6] = target: T4, Mdm4 (1-125) (human, UniProt O15151 1-125); experiment: apparent Kd, competitive fluorescence polarization; displacement of FAM-…-NH2 from Mdm4 (1-125)
T4 construct: range 1-125; also called MDMX; Hdm4
T4 sequence (looked up): T2 sequence (O15151 1-125)

[7] = target: T3, Mdm2 (1-125); experiment: apparent Kd, competitive fluorescence polarization; displacement of FAM-…-NH2 from Mdm2 (1-125); remark: listed apart in the source
[8] = target: T4, Mdm4 (1-125); experiment: apparent Kd, competitive fluorescence polarization; displacement of FAM-…-NH2 from Mdm4 (1-125); remark: listed apart in the source

## COc1ccc(C2=N[C@@H](c3ccc(Cl)cc3)[C@@H](c3ccc(Cl)cc3)N2C(=O)N2CCNC(=O)C2)c(OC(C)C)c1 [nutlin, reference compound]
[1]
  apoptosis in p53 null thymocytes: caused apoptosis in p53 null thymocytes

## CC(=O)N[C@H](C(=O)N[C@@H](CO)C(=O)N[C@@H](Cc1ccccc1)C(=O)N[C@]1(C)CCCCCCC=CCCC[C@@](C)(C(N)=O)NC(=O)[C@H](CC(C)C)NC(=O)[C@H](CC(C)C)NC(=O)[C@H](CC(N)=O)NC(=O)[C@H](Cc2c[nH]c3ccccc23)NC(=O)[C@H](Cc2ccc(O)cc2)NC(=O)[C@H](CCC(=O)O)NC1=O)[C@@H](C)O [sMTide-01, Ac-^1TSFXEYWNLLX^11-NH2] (Ac-TSF[R8]EYWNLL[S5]-NH2; staple 4-11)
[2]; stapled vs unstapled peptide
  increase in Kd against Mdm2 in comparison to unstapled counterpart: approximately 2 fold
[3]; stapled vs unstapled peptide
  increase in Kd against Mdm4 in comparison to unstapled counterpart: 4 fold
[4]
  p53 transcriptional activity in T22 p53 reporter assay: little activity

## CC(=O)N[C@H](C(=O)N[C@@H](CO)C(=O)N[C@@H](Cc1ccccc1)C(=O)N[C@]1(C)CCCCCCC=CCCC[C@@](C)(C(N)=O)NC(=O)[C@H](CC(C)C)NC(=O)[C@H](CC(C)C)NC(=O)[C@H](C)NC(=O)[C@@H](Cc2c[nH]c3cc(Cl)ccc23)NC(=O)[C@H](Cc2ccc(O)cc2)NC(=O)[C@H](CCC(=O)O)NC1=O)[C@@H](C)O [sMTide-02B, Ac-^1TSFXEY(D-6-Cl)WALLX^11-NH2]
[3]; apparent Kd, competitive fluorescence polarization, Mdm4 75 nM, FAM peptide 50 nM
  Mdm4 Kd: attenuated
[4]
  p53 transcriptional activity in T22 p53 reporter assay: negligible activity

## CC(=O)N[C@@H](CO)C(=O)N[C@@H](Cc1ccccc1)C(=O)N[C@]1(C)CCCCCCC=CCCC[C@@](C)(C(N)=O)NC(=O)[C@H](CC(C)C)NC(=O)[C@H](CC(C)C)NC(=O)[C@H](C)NC(=O)[C@H](Cc2c[nH]c3ccccc23)NC(=O)[C@H](Cc2ccc(O)cc2)NC(=O)[C@H](CCC(=O)O)NC1=O [sMTide-04, Ac-^2SFXEYWALLX^11-NH2] (Ac-SF[R8]EYWALL[S5]-NH2; staple 3-10)
[2]; comparison of apparent Kds
  preference between Mdm2 and Mdm4 in binding: interacted more tightly with Mdm4 than with Mdm2

## CC(=O)N[C@H](C(=O)N[C@@H](CO)C(=O)N[C@@H](Cc1ccccc1)C(=O)N[C@]1(C)CCCCCCC=CCCC[C@@](C)(C(N)=O)NC(=O)[C@H](CC(C)C)NC(=O)[C@H](CC(C)C)NC(=O)[C@H](Cc2ccccc2)NC(=O)[C@H](Cc2c[nH]c3ccccc23)NC(=O)[C@H](Cc2ccc(O)cc2)NC(=O)[C@H](CCC(=O)O)NC1=O)[C@@H](C)O [sMTide-07, Ac-^1TSFXEYWFLLX^11-NH2] (Ac-TSF[R8]EYWFLL[S5]-NH2; staple 4-11)
[4]
  p53 transcriptional activity in T22 p53 reporter assay: diminish the ability of sMTide-07 to induce p53, compared to sMTide-06

B1: sMTide-05 (peptide)
peptide: Ac-TSF[R8]EYWKLL[S5]-NH2
modifications: staple 4-11
SMILES: CC(=O)N[C@H](C(=O)N[C@@H](CO)C(=O)N[C@@H](Cc1ccccc1)C(=O)N[C@]1(C)CCCCCCC=CCCC[C@@](C)(C(N)=O)NC(=O)[C@H](CC(C)C)NC(=O)[C@H](CC(C)C)NC(=O)[C@H](CCCCN)NC(=O)[C@H](Cc2c[nH]c3ccccc23)NC(=O)[C@H](Cc2ccc(O)cc2)NC(=O)[C@H](CCC(=O)O)NC1=O)[C@@H](C)O
notes: also called Ac-TSFXEYWKLLX-NH2
[5]
  Kd: 26.3 nM
[6]
  Kd: 29.9 nM

B2: sMTide-07 (peptide)
peptide: Ac-TSF[R8]EYWFLL[S5]-NH2
modifications: staple 4-11
SMILES: CC(=O)N[C@H](C(=O)N[C@@H](CO)C(=O)N[C@@H](Cc1ccccc1)C(=O)N[C@]1(C)CCCCCCC=CCCC[C@@](C)(C(N)=O)NC(=O)[C@H](CC(C)C)NC(=O)[C@H](CC(C)C)NC(=O)[C@H](Cc2ccccc2)NC(=O)[C@H](Cc2c[nH]c3ccccc23)NC(=O)[C@H](Cc2ccc(O)cc2)NC(=O)[C@H](CCC(=O)O)NC1=O)[C@@H](C)O
notes: also called Ac-TSFXEYWFLLX-NH2
[5]
  Kd: 175 nM
[6]
  Kd: 394 nM

B3: sMTide-06 (peptide)
peptide: Ac-TSF[R8]EYWYLL[S5]-NH2
modifications: staple 4-11
SMILES: CC(=O)N[C@H](C(=O)N[C@@H](CO)C(=O)N[C@@H](Cc1ccccc1)C(=O)N[C@]1(C)CCCCCCC=CCCC[C@@](C)(C(N)=O)NC(=O)[C@H](CC(C)C)NC(=O)[C@H](CC(C)C)NC(=O)[C@H](Cc2ccc(O)cc2)NC(=O)[C@H](Cc2c[nH]c3ccccc23)NC(=O)[C@H](Cc2ccc(O)cc2)NC(=O)[C@H](CCC(=O)O)NC1=O)[C@@H](C)O
notes: also called Ac-TSFXEYWYLLX-NH2
[5]
  Kd: 128 nM
[6]
  Kd: 328 nM

B4: sMTide-04 (peptide)
peptide: Ac-SF[R8]EYWALL[S5]-NH2
modifications: staple 3-10
SMILES: CC(=O)N[C@@H](CO)C(=O)N[C@@H](Cc1ccccc1)C(=O)N[C@]1(C)CCCCCCC=CCCC[C@@](C)(C(N)=O)NC(=O)[C@H](CC(C)C)NC(=O)[C@H](CC(C)C)NC(=O)[C@H](C)NC(=O)[C@H](Cc2c[nH]c3ccccc23)NC(=O)[C@H](Cc2ccc(O)cc2)NC(=O)[C@H](CCC(=O)O)NC1=O
notes: also called Ac-SFXEYWALLX-NH2
[5]
  Kd: 104 nM
[6]
  Kd: 63 nM

B5: MTide-01 (peptide)
peptide: Ac-TSFAEYWNLLS-NH2
notes: Linear phage-derived peptide
[7]
  Kd: 46.3 nM
[8]
  Kd: 33.2 nM

B6: sMTide-02A (peptide)
peptide: Ac-TSF[R8]EY[Trp(6-Cl)]ALL[S5]-NH2
modifications: staple 4-11
notes: also called Ac-TSFXEY(L-6-Cl)WALLX-NH2; L-isomer
[8]
  Kd: 1360 nM

B7: sMTide-02B (peptide)
peptide: Ac-TSF[R8]EY[dTrp(6-Cl)]ALL[S5]-NH2
modifications: staple 4-11
notes: also called Ac-TSFXEY(D-6-Cl)WALLX-NH2; D-isomer
[8]
  Kd: 2160 nM
